Assay [1] has as its target rat collagen, acid soluble, type I, rat tail (Upstate 08-115) (rat) (UniProt P02454). As to the kind of experiment: dried collagen assay.
Assay [2] addresses human collagen type I, acid soluble, extracted from placenta (Sigma C7774) (human) (UniProt P02452). As to the kind of experiment: dried collagen assay.

Consider four molecules from patent US20080044360A1.

Bridge positions count the residues as written; N and C are the ends. Square brackets hold non-standard residues; d marks the D form. Primed or numbered codes have the meaning given here. Ends that are not written are not given here. * marks the point of attachment. GdDTPA‑thiourea = GdT is GdDTPA-thiourea (Gd-DTPA chelate attached through a thiourea); dBip = N[C@H](Cc1ccc(-c2ccccc2)cc1)C(=O)O; Orn = NCCC[C@H](N)C(=O)O; Gd^T″ = GdDTPA-thiourea; Cbz = O=C(OCc1ccccc1)*; Dap = NC[C@H](N)C(=O)O; GdT = GdDTPA-thiourea

Sequence of human collagen type I, acid soluble, extracted from placenta (Sigma C7774) (human) (P02452 162-1218 limits assumed, chain 1 of 2): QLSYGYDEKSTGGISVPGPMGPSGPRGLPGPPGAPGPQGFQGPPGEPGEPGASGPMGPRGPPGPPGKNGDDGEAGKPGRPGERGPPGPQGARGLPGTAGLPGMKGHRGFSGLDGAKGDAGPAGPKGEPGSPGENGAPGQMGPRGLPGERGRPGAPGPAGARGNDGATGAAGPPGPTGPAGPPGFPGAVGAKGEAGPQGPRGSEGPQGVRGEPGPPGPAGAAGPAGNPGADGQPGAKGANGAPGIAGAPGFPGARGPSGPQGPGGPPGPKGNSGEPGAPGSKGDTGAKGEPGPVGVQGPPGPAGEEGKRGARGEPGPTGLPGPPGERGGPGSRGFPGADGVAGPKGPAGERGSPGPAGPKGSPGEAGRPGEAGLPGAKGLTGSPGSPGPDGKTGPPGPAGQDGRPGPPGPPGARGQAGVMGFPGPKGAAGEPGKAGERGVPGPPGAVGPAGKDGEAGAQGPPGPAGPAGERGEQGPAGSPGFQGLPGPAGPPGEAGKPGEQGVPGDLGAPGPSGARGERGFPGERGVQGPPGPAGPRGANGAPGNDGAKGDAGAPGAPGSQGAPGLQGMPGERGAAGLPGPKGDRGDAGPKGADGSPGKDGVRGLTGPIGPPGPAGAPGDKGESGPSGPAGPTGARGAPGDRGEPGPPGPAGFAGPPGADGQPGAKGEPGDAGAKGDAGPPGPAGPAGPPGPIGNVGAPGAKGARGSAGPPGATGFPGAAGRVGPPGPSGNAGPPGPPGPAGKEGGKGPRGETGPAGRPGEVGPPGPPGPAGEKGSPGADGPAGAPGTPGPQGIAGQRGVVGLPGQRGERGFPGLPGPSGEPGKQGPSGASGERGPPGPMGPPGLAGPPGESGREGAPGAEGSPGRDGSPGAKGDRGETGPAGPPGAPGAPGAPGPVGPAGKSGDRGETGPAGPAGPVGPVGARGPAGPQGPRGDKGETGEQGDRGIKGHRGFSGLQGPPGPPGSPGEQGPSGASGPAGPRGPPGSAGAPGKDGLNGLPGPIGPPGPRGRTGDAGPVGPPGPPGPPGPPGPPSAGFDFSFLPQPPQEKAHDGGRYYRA
Sequence of human collagen type I, acid soluble, extracted from placenta (Sigma C7774) (human) (P08123 80-1119 limits assumed, chain 2 of 2, further chain): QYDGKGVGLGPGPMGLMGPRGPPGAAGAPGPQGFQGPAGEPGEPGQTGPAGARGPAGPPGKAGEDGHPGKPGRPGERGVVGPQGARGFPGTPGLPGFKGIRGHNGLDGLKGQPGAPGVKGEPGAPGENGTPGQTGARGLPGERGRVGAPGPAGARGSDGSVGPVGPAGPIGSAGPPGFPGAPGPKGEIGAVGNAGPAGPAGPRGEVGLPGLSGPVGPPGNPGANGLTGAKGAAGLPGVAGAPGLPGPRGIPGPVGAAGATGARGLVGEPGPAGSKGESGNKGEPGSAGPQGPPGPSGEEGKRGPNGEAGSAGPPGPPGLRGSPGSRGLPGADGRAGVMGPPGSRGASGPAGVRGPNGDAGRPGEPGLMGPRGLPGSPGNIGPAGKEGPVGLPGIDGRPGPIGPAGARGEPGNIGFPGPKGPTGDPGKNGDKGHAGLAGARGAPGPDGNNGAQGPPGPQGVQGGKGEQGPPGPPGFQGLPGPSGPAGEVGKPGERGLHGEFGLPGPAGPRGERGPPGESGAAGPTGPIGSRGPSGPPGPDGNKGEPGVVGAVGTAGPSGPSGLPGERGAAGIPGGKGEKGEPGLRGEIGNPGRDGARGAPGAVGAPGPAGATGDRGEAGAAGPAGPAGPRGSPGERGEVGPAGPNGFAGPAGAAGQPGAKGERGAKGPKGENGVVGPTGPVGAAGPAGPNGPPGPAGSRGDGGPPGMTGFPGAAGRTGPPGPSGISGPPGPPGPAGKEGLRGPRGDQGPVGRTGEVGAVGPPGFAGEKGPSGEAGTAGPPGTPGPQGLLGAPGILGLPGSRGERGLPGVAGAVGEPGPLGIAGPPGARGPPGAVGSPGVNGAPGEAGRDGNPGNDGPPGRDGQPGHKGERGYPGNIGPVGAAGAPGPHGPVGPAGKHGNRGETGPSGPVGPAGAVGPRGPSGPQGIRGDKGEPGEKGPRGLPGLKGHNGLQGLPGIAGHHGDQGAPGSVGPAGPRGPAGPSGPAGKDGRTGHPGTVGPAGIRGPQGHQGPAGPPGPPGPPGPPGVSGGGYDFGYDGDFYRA
Sequence of rat collagen, acid soluble, type I, rat tail (Upstate 08-115) (rat) (P02454 152-1207, chain 1 of 2): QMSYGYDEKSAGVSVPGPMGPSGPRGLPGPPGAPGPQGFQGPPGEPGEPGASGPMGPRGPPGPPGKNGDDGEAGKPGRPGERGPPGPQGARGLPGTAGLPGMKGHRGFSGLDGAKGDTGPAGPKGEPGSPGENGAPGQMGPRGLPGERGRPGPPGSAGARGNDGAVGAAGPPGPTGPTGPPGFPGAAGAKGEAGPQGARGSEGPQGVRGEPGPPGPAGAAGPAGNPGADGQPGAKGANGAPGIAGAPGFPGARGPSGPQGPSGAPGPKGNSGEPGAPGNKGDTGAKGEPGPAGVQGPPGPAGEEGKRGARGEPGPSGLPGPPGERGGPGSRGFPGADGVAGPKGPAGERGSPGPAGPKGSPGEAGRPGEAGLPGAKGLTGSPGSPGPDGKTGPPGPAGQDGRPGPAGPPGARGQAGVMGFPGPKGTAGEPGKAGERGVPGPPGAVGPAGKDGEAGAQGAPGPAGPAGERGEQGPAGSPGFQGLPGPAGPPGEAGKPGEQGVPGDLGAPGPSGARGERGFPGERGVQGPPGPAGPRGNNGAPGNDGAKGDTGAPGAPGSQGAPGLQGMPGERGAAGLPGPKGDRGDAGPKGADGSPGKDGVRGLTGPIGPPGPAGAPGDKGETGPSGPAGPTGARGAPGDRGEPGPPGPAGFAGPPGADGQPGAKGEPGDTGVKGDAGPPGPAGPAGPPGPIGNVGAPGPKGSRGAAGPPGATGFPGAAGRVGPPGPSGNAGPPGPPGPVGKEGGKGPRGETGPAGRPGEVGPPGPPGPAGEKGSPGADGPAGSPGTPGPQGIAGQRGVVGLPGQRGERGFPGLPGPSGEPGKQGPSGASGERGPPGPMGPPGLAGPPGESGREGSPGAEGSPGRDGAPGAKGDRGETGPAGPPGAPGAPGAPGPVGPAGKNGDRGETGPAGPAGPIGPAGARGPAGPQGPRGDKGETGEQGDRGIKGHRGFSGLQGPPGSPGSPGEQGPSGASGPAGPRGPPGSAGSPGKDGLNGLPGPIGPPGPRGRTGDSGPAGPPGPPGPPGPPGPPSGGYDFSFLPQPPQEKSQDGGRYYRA
Sequence of rat collagen, acid soluble, type I, rat tail (Upstate 08-115) (rat) (P02466 86-1125, chain 2 of 2, further chain): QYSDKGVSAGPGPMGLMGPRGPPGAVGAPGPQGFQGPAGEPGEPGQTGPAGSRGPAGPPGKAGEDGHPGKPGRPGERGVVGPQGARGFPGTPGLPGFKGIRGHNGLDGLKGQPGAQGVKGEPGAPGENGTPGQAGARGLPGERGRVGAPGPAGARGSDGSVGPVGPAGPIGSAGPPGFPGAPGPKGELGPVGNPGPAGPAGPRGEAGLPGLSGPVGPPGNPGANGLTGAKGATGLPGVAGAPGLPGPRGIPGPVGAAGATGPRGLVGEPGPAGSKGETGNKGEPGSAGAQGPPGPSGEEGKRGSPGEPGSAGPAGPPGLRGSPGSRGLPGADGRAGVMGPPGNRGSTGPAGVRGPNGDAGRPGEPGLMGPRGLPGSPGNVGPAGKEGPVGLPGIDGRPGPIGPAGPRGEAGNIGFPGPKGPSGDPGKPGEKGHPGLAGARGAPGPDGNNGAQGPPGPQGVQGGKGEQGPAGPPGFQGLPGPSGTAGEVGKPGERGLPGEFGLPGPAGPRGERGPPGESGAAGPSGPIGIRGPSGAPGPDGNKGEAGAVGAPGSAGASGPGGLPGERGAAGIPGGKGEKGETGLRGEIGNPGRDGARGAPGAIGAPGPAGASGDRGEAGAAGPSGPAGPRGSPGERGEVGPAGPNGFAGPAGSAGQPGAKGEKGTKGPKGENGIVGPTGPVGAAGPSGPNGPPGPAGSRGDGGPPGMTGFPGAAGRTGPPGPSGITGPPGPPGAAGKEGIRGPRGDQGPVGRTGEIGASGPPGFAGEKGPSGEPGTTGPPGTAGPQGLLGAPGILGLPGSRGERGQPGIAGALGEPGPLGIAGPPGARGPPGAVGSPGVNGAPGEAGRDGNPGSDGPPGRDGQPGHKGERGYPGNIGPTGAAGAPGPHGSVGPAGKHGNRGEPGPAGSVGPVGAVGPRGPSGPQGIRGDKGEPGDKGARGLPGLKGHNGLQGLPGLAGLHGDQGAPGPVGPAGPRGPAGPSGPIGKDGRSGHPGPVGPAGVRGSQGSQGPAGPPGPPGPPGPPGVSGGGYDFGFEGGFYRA

As for {Gd^T″}-GQWHCTTLFPHH[dY]CLYG (disulfide 5-14 (inferred); not fully specified (C-terminus)) [Compound ID 907], the % bound was determined as 1% in assay [1] and 6% in assay [2].

B1: Compound ID 903 (peptide)
peptide: GdT-GQWHCTTRFPHH[dBip]CLYG
modifications: disulfide 5-14 (inferred); not fully specified (C-terminus); also: gadolinium complex (GdDTPA)
For the molecule B1, the % bound in assay [1] amounted to 5%; in assay [2], 3%.

Regarding Cbz-GQWHCT[Orn](GdDTPA‑thiourea)RFPHHYCLYG (disulfide 5-14 (inferred); also: gadolinium complex (GdDTPA)) [Compound ID 941], the % bound was found to be 5% in assay [1] and 8% in assay [2].

On to Cbz-GQWHCT[Dap](GdDTPA‑thiourea)RFPHHYCLYG (disulfide 5-14 (inferred); also: gadolinium complex (GdDTPA)) [Compound ID 939], for which the % bound in assay [1] is 5%; in assay [2] it was 4%.
